Patent US7361735B2, “LITAF binding site peptides and methods of using the same” (Trustees of Boston University, priority 2003, dated 2008)

System: wtTNFβ, TNF-α promoter from −991 to 1
Experiment: Luciferase reporter assay, wild-type TNF-α promoter, WTK-1
Type: cell-based
Details: WTK-1 cells; normalized to β-gal; LITAF overexpressed alone without LPS stimulation
Text: FIG. 10 is a graphical representation of the analysis of LITAF function in luciferase reporter constructs. The series of TNF-α promoter DNA fragments were subcloned into the pGL3 basic vector (Pharmacia), a promoterless and enhancerless luciferase reporter gene. One construct, named wtTNFβ, contained TNF-α promoter from −991 to 1. Another one, mtTNFβ1, was a mutant inserted with the promoter from −991 to 1, but lacking the LITAF binding site. WTK-1 cells (grown to 85% confluence) in a 6-well plate at 1.2×10^5 cells/well were co-transfected with 1 μg DNAs including pCMV-LITAF recombinant vector, pVMVβ-gal and pGL3 basic as control by Fugene 6 (Roche Molecular Biochemicals) for 3 hrs, washed with PBS twice, then individually stimulated with LPS or Chariot/peptide complex of 100 ng/ml peptide B (peptide fragment of LITAF representing aa 152-228) or HA as control for 3 hrs, washed with PBS, incubated at 37° C., 5% CO2, o/n. The β-galactosidase gene was included in all transfections. The cells were harvested and lysed approximately 12 hrs after transfection. The promoter activity from each lysate sample was measured using the luciferase reporter assay system (Promega) and normalized to β-gal expression in the same sample, as described in the methods section below.
The activation of TNF-α gene expression by LITAF was investigated. […]

B1: exogenous LITAF: full-length human LITAF (SEQ ID NO. 1) overexpressed from the pCMV-LITAF recombinant vector (protein, listed as Homo sapiens)
chain: MSVPGPYQAATGPSSAPSAPPSYEETVAVNSYYPTPPAPMPGPTTGLVTGPDGKGMNPPSYYTQPAPIPNNNPITVQTVYVQHPITFLDRPIQMCCPSCNKMIVSQLSYNAGALTWLSCGSLCLLGVHSGLLLHPLLRGCPAGRGPLLSQLQSSPGHLQAFVGLSQTWREPGAAGSPFHLSSSFTPGGGSALVVSPLQGAHLHVFFWGEYVAKLTNLQTPEIAAWSRA
TNF-α promoter activity (luciferase), wild-type promoter/reporter plasmid: 2.5 fold
